Results taken from US20100068208A1, “Degranulation inhibitor” (priority 2005, published 2010).
Where no end group is shown, it is not given here.

T1: human TGR12 (Homo sapiens, UniProt Q96LB1)
T1 construct: expressed in transfected cells
T1 sequence (Q96LB1 1-330): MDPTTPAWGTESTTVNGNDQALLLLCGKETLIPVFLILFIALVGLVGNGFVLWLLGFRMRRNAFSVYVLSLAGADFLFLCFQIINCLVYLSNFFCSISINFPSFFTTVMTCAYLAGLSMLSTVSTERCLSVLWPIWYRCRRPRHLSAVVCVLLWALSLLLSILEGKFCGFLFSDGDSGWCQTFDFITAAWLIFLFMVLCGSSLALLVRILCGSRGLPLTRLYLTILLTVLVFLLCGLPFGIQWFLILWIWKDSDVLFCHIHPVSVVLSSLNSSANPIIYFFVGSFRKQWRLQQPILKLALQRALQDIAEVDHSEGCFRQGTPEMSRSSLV

T2: TGR12-GFP (fused protein of human TGR12 and GFP, encoded by the DNA of SEQ ID NO: 31), stably expressed on … (human, UniProt Q96LB1 1-330)
T2 sequence: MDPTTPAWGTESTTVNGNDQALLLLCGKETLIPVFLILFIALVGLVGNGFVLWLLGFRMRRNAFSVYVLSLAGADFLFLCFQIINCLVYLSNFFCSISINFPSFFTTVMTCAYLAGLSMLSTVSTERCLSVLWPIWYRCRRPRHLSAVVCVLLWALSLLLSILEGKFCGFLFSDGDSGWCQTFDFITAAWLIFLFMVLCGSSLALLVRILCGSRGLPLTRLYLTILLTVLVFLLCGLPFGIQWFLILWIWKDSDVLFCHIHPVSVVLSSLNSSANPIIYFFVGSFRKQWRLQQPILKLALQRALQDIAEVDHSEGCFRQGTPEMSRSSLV

T3: human TGR12 (untagged) (human, UniProt Q96LB1 1-330)
T3 sequence: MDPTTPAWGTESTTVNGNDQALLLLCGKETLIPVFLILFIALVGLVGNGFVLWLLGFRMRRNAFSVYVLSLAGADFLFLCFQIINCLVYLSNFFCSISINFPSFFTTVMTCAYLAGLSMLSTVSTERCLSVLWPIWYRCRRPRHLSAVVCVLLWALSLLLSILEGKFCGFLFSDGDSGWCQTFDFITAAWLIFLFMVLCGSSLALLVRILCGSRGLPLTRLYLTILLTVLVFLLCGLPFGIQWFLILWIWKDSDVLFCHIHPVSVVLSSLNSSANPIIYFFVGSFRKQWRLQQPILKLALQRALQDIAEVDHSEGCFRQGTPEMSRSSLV

T4: TGR12-GFP (fused protein of human TGR12 and GFP, encoded by the DNA of SEQ ID NO: 45), stably expressed on … (human, UniProt Q96LB1 1-330)
T4 construct: also called TGR12-GFP expression CHO cell line; not shown: GFP (Wako Pure Chemical) fused after the C-terminus of TGR12
T4 sequence: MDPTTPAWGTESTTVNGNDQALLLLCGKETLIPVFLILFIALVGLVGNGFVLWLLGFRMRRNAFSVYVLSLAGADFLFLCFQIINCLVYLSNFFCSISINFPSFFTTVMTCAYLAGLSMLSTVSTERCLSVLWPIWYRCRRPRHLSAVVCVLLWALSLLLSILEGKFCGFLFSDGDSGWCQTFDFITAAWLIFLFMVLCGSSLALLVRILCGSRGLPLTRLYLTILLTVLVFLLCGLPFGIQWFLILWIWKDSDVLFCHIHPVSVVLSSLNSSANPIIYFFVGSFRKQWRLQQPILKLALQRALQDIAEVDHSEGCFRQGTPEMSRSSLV


Columns and labels:
human TGR12 = biological target: T1, human TGR12; experiment: MAPK (ERK1/2) activation in human TGR12-expressed CHO cells (western blotting); type: cell-based; conditions: CHO-TGR12, PTX 0.1 μg/mL 4 hours before the assay
Description: CHO/dhfr^− cells (hereinafter CHO) were incubated in α-MEM (Invitrogen) containing 10% fetal calf serum. […] CHO-TGR12 was incubated in nucleic acid-free α-MEM (Invitrogen) containing 10% dialyzed fetal calf serum.
The cells were prepared as follows. […] After centrifugation, the deposited cells were suspended in the medium at 2×10^5 cells/ml and 1 mL each was plated in a 12-well cell culture dish. After incubation overnight in a CO2 incubator, the medium was aspirated and washed with PBS. […] Pertussis toxin (hereinafter PTX) was added at a final concentration of 0.1 μg/mL 4 hours before the assay.
Activation of the cells was performed as follows. The medium was aspirated and washed with PBS.
Detection by SDS-PAGE and western blotting was performed as follows. After resolving on a 10% Bis-Tris gel (Invitrogen), the proteins were transferred onto Immune-Blot PVDF membrane (BIO-RAD). The membrane was blocked in Block Ace (Dainippon Pharmaceutical), incubated at room temperature for an hour using a primary antibody (phospho-p42/p44 MAP kinase (Thr202/Thr204) antibody (CST) or p42/p44 MAP kinase antibody (CST)) and then incubated at room temperature for an hour using a secondary antibody (anti-rabbit IgG (CST)). The membrane after the antibody reaction was visualized by chemiluminescence with ECL PLUS (Amersham Biosciences), followed by detection and image analysis using LAS1000 (FUJI FILM).

[1] = biological target: T2, TGR12-GFP (fused protein of human TGR12 …); experiment: cell-based or functional assay
human TGR12 (untagged) = biological target: T3, human TGR12 (untagged); experiment: cell-based or functional assay
[2] = biological target: T4, TGR12-GFP (fused protein of human TGR12 …); experiment: competition with 200 pM [125I]-rCST14 (Y0) on CHO-TGR12GFP cells, Hill plot
Description: The binding assay using CHO-TGR12GFP was performed as follows. […] After incubation overnight, the cells were washed 3 times with ice-chilled assay buffer (MEM-α, 20 mM HEPES (pH 7.4), 0.05% BSA) and 250 μL of the assay buffer was added thereto. […] After washing 3 times with 500 μL of the assay buffer, the cells were lysed in 250 μL of 0.5N NaOH and the lysate was recovered for measurement of the radioactivity.
Based on the above, non-specific binding was estimated as the activity of 10 μM rat cortistatin-14 and the IC₅₀ value of each peptide was obtained from Hill plot analysis.

| Molecule | attenuation by pretreatment of phosphorylation of ERK1/2 with ATP (human TGR12) | effect of pretreatment on phosphorylation of ERK1/2 by substance P (human TGR12) | EC50 in the calcium increasing effect on CHO-TGR12 [1] [nM] | maximum activity in the calcium increasing effect (FLIPR), CHO-TGR12, at 0.3 nM [1] [fluorescence intensity] | maximum activity in the calcium increasing effect (FLIPR), CHO-TGR12, at 3 nM [1] [fluorescence intensity] | maximum activity in the calcium increasing effect (FLIPR), CHO-TGR12, at 30 nM [1] [fluorescence intensity] | maximum activity in the calcium increasing effect (FLIPR), CHO-TGR12, at 300 nM [1] [fluorescence intensity] | maximum activity in the calcium increasing effect (FLIPR), CHO-TGR12, at 3000 nM [1] [fluorescence intensity] | EC50 in the degranulation on LAD 2 (human TGR12 (untagged)) [nM] | degranulation of LAD 2 (beta-hexosaminidase release, % of total) at 10 nM (human TGR12 (untagged)) [%] | degranulation of LAD 2 (beta-hexosaminidase release, % of total) at 30 nM (human TGR12 (untagged)) [%] | degranulation of LAD 2 (beta-hexosaminidase release, % of total) at 100 nM (human TGR12 (untagged)) [%] | degranulation of LAD 2 (beta-hexosaminidase release, % of total) at 300 nM (human TGR12 (untagged)) [%] | degranulation of LAD 2 (beta-hexosaminidase release, % of total) at 3 µM (human TGR12 (untagged)) [%] | IC50 [2] [nM] |
| --- | --- | --- | --- | --- | --- | --- | --- | --- | --- | --- | --- | --- | --- | --- | --- |
| Pertussis toxin [PTX] | not observed | attenuated |  |  |  |  |  |  |  |  |  |  |  |  |  |
| HSDAVFTDNYTRLRKQMAVKKYLNSILN (peptide, UniProt P01282 125-152, looked up, not fully specified; ends and bridges not checked, domain: VIP; also called vasoactive intestinal peptide) [human VIP (vasoactive intestinal polypeptide)] |  |  | ~305 | 56 | 60 | 16 | 11200 | 24000 | ~105 | 1.5 | 4 | 36.7 | 63.9 | 76.1 | 2040 |
